Measured values as given in US20130210077.
pIC50, pKd: −log10 of the molar value.

Assays:
[1] = system: CsnR (ROK-family transcriptional repressor, SSPG_04872) (Streptomyces lividans TK24); experiment: competition
[2] = system: CsnR (ROK-family transcriptional repressor, SSPG_04872) (Streptomyces lividans TK24); experiment: EMSA; conditions: 10 mM HEPES pH 7.9, 150 mM KCl, 10% glycerol, poly(dI-dC), room temperature

## CCTCTTCTGGTAGGAAACTGTCCGATCAGT (double strand) [csnA-MM]
[1]; competitor vs labeled csnA-WT, +2 and +6 mutations, lost most affinity, SE logIC50 0.33
  pIC50: 6.98

## CCTCTTCTGGTAGGAAACTGTCCTATCAGT (double strand) [csnA-M1]
[1]; competitor vs labeled csnA-WT, +2 mutation, SE logIC50 0.13
  pIC50: 7.28

## CCTCTTCTGGTAGGAAACTTTCCGATCAGT (double strand) [csnA-M2]
[1]; competitor vs labeled csnA-WT, +6 mutation, SE logIC50 0.08
  pIC50: 8.57

## CCTCTTCTGGTAGGAAACTTTCCTATCAGT (double strand) [csnA-WT]
[1]; unlabeled competitor vs 0.03 nM labeled csnA-WT, SE logIC50 0.11
  pIC50: 8.89
[2]; SE 0.009 nM
  pKd: 10.49

## CTCCAGCCAACAGGAAACTTTCCTAACAGA (double strand) [csnR-WT]
[2]; SE 0.008 nM
  pKd: 10.40
